Measured values as given in paper doi:10.1101/2023.07.17.549240.

B1: PCS1 W-box probe (dsDNA)
DNA 1: TACAATCCAAATTGACTGTAATTTGTTA
DNA 2: TAACAAATTACAGTCAATTTGGATTGTA
B2: PCS2 W-box1 cold competitor (dsDNA)
DNA 1: ATTGTCAGAGTTTGACTATGGAGCAAAC
DNA 2: GTTTGCTCCATAGTCAAACTCTGACAAT
B3: PCS2 mW-box1 probe (dsDNA)
DNA 1: ATTGTCAGAGTCGCGGAATGGAGCAAAC
DNA 2: GTTTGCTCCATTCCGCGACTCTGACAAT
B4: PCS2 W-box1 (W1) probe (dsDNA)
DNA 1: ATTGTCAGAGTTTGACTATGGAGCAAAC
DNA 2: GTTTGCTCCATAGTCAAACTCTGACAAT

Key:
WRKY45 [1] = target: T1, WRKY45 (Arabidopsis thaliana, UniProt Q9S763 1-147); experiment: EMSA
WRKY45 [2] = target: T1, WRKY45; experiment: competition

T1 sequence (Q9S763 whole entry): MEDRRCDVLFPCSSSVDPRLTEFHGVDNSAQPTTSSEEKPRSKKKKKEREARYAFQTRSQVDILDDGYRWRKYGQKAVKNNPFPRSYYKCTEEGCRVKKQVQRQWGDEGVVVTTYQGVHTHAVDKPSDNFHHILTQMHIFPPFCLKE

| Binder | binding result (WRKY45 [1]) | binding result (WRKY45 [2]) |
| --- | --- | --- |
| B1 | no binding | – |
| B2 | – | binds |
| B3 | no binding | – |
| B4 | binds | – |
